Test results: a protein production outcome set (Wang et al. 2014)

Experiment: label from the status in PepcDB records

| Sequence | protein production |
| --- | --- |
| MFSPDSPISEFVSISTHVAPSVVKTTAGDYLLIWHLGGLPFVGRDEFELEQRHNTFNRLLQTLRAPDFANVAFWVHDVRRRRRIGAGGRFKQAFNQTLSDEYYTALSSQKIMQNELYFSMIYRPVVTGRRLVEKSANPDKIRAEEEQAVAKVVELATNVEAVLKDYAPYRLGMYEAKNGLVFSETLEFLGYLLNRIDEPVPVLPAPVPAYLPVSKHMFANKTGDFVIRTPDGINHFGAILNIKEYADGTYPGILNGLKYLDSEYVMTHSFSPVGRHDALKVLERTKGMMVSSGDKSSTQIRDLDVAMDDVASGNFVLGEYHFTLAVYADSQEKLARQIATTRAELSNAGFVSAKEDLAIASSFYSQLPGNWRFRTRIANLSSLNFLGLSPLHNFAQGKQHNNPWGDCVTTLQTTNGQPYYFNFHATHPSENSLGEKAIGNTMVIGKSGTGKTALINFLLSQVQKFDPIPTIFFFDKDRGAEIFVRACGGNYLALENGSPTGFNPFQCERNEANTQFLAELIKVLGGKAEYSAREEEDIYRAVEGMLDTPMHLRSMSNFRKSLPNMGDDGLYARLRRWTAGNSLGWVFDNPVDTIDLTRASIIGFDYTDVIDNAEVRVPVINYLLHRLEALIDGRPLIYVMDEFWKILDGKGGLKEFAKNKQKTIRKQNGLGIFATQSPEDALASDIAAALIEQTATMILLPNPNASRDDYMEGLKLTDAEYQVVVSLDERSRCFLVKQGHASAVCQLNLRGMDDALSVISSSTDNIEIMHQILAGKAGKLGVTVDQLTPEQWLEHHHHHH | failed |
| MVTQNKLKKLVLGLSLIAASSAAMATTDTAKPNILAIWGDDIGPFNISAYNRGIMGYKTPNIDRIANEGIIFTDSYGDQSCTAGRAGFITGQHPMRTGLTKVGLPGAKEGLNKKDPTIAELLKPHGYMTGQFGKNHLGDQDEHLPTNHGFDEFFGNLYHLNAEDEPEHPDYPKDPAFKKRFGPRGAIHSFADGKITDTGPVTKKRMETIDEEFLGAALKFIDKAHAAKKPFFVWFNSTRMHVWTRLKPESDGVTGQGLYADGMVEHDGHVGQLLDKIDKLGIAENTIIMYTTDNGAELALWPDGGYTPFRGEKNTNWEGGYRVPMMVKWAGKIKPNQVSNEMISLIDWMPTILAVAGDTNIKSKLKKGTNVGGTKFKVHLDGYNFLPHFLDTTKEGPRKEFIYSSDTGDIVGLRYEDYKFVFKEQRAHGLEVWQNPWTTLRAPKIFNLRMDPYERMDHESEGYGQWWAEHMFLMAPAMMKVAQFKATFKEFPQRQKPGSFVP | failed |
| MPNNVKITSSHRVLMIALLAAAFACYLLVEPYINSIVMAFIISLLMFPVHEWFERKMPKHKNSASLLTCVVLTFIIVIPLLFVFAAIVQQGSVFSQNTYKWVTNGGIQDIFQHPWVIKGLSIVNEYLPFDKIEPKAIAEKIGQFATTFGSNLVAISAKILGDATNFLMDFFLMLFVLFFLLRDHDKIISAIRHILPLSRSQEDRILTEIEQVSKSAVMGSFLTAIAQGLAGGIGMWLAGFPGLFWGTMMGFASFIPVVGTALIWIPAAAYLFLTGDMTWAIFLTAWSVVIVGSIDNLLRPLLMQGSAGMNTLMIFFSLLGGLHLFGLIGLIYGPLIFAVTMVLFNIYEEEFKDFLNQQDNS | failed |
| MCQSNQIVSHFLSHRNVTNELAEKISKDHYSYKPAETSMSAEELVKHILTSFHLFANVIKEGNASPFQNKQEETETDLNVLAKTYTEKTVAILEQLTEEQLDREIDLTSAFGRKVTGRALLQLAMEHEIHHKGNLFVYVREMGHTELPFYQQRM | not failed |
| MKLFTTALFAIAFGIVIGLSFPSLWITEIWEPSNPRGAERLPSGIIASESDLYLRRLWGNPDEDLVKQPRYLATFTVGYNQRHNIDACVSKFSENFTIVLFHYDGVTSAWNDEFEWSRNAIHISVKKQTKWWYAKRFLHPDIVARYDYIFIWDEDLGVDHFNAEEYIHIVKKHDLEISQPGLDPETGFNWQITKRREHSEVHKETDEKLDWCSNPPRPPCAAFVEIMAPVFSRDAWRCVWHMIQNDLVHGWGLDFALRRCVEEPAFEKIGIVDSQWIVHQFIPSLGNQGKADNGKAPWQGVRDRCQMEWKMFENRVEAAEKDYFRSLQVESPSNSTTSH | failed |
| MKILLLGGNGFIGRRLAARLIEAGHELSAPSRVELDLARPNQDWAAWVDGVDAVANLAGAFRQGRAGGFEAIHHAGPLRLAALARAHGVRRWVQLSALGAAAHAGAPFLSSKGRGDAALLDCGMEAVVARPSLIYGADGASSRLLLRLARLPFWLLPEGGGQRIQPVAAADVAEGLQRLIEGDARGVIDFVGAAEASLADYLRQLRRLQGVGGAAWLCPVPAWLAAGLAAACGCWPGSLLNRDSLRMLRQGSTADPAAFAALLGRQPLSFRQFGEVA | failed |
| MNYKELLEFNDYAMDLTIRMAHHSTAIENNPLSLAETISILTTEYIPREMPQRAFFEVKNYQNMLFFLLENLNKGQSVDSFFIRELHGILMNFLLPNKGAFKTTDNTILGASFETTPIFKCLWL | failed |
| MNDISVSADRHAIERGSFNGNAKEYFGIWIVNILLTIMTLGIYSAWAKVRRKRYFNGNTLLAGRAFGYHATGGQIFKGRLIAFAFIVFSQLVGLIHPFLVFAPTILLLIFLPWVITRSIRFNARVTSYRNVRFDFVGTAWGAFVSILLGSFVALLSIGILAPLASRWANRYIVSNLHYGDRRFSTDPKIGALYRAWIIPALLVVVGGVLAVFLLIFLAMVLVQAAGIGSRELATAPENYEIVTLFGLGQILINLLVAMLIYGFASTVYKAGVRNVVVSSTLLDGKHELHSDLHRGRYLWIVFSNLIVTIFTFGLMRPWAAVREAQYAVERMGISFKGDMGEVLSSMEATGAAVSAEYMDMEGFEFGF | not failed |
| SKALLFVIIGSVLVMLLLVGVIIMLLMGNKEESKENASKNTQEVQANPMANKNQEAKEGSNIQQYLVLGPLYAIDAPFAVNLVSQNGRRYLKASISLELSNEKLLNEVKVKDTAIKDTIIEILSSKSVEEVVTNKGKNKLKDEIKSHLNSFLIDGFIKNVFFTDFIIQ | failed |
| MSCFYLDLLKIKDPSFMKRLDIQELEALAADIRAFLITSTSKSGGHIGPNLGVVELTIALHYSFNSPKDKFIWDVGHQSYVHKILTGRANQFGTLREHGGLDGFPKRKESIHDVFETGHSSTSLSAAAGMVIARDIKKEDFYVIPIIGDGALTGGMALEALNHIGDMGKDMIVILNDNDMSIAPNVGAIHNILGKLRTSDTSKQTKTNVDGAFFEELGFMYLGPIDGHDIEEVITNLELAKRAKGPVLLHIVTKKGKGYQPAELDSRGTWHGTGPYKVETGSFIKPAKRAASWSSVISNELIRLAEMDERIVAITPAMPVGSKLEKFAKAFPERFFDVGIAEQHATTMAAGLATQGMKPFLAIYSTFLQRAYDQLVHDVCRQKLNVVIGIDRAGLVGADGETHQGIFDISFLNSIPNMTISMPKDEVEARQLMDTAFSYNDGPFAIRYPRGEAPGVQVVESNTLIPIGQWETIIQPLDAVILTFGPTIELALKAAEQLEIEGYRVGVINARYIKPLDEALLHKILKQKIPILTVEESLLKGGFGASVLEFIEANNYRDVIMHRIGLPDEFISHGSVSIILESFGISTTGLVLKIKEMLAQSGKLRAKRL | failed |
| MHSQASNPSATPEPETPNAAGGKRSVFAVILGNAVEFFDFGVYATFAVMIGHTFFPSDSAFVSLMLSVTAFGVGFIVRPLGAVLIGAYADRVGRKPAMLLTLVMMAVGTGSIAILPSYESIGIAAPILLVLTRLIQGLAWGGEAGPATTYILEAAPAHKRGTYACWQVVAQGVAAMAAGTVGYTLTQVLSPEDLNSWGWRVPFVFGLLVLPIGIYIRRNLAETFHGQGETASTGSLVRQVFGEHRRALVLGLLILSGSTITQYFINYMTTFALTELKLPTSISMLSTLVAGAAMAVCAIAGGMLCDRFGRRTILMAPRVVLLLVLFPALQLMTEHPSPTTFLLTLAVLSGLHGMSGAALIVLLVESFPKAVRSTGFSIVYAFGVAAFGGTAQIIITWLIGTTGNPMSPVGYLLVANLVCLTAAWFAKETRPQAPGRSNPGQRLAEARAR | failed |
| LECDGKVNICCKKQFFVSFKDIGWNDWIIAPSGYHANYCEGECPSHIAGTSGSSLSFHSTVINHYRMRGHSPFANLKSCCVPTKLRPMSMLYYDDGQNIIKKDIQNMIVEECGCS | not failed |
| MNLTELMERIPHLREILNIVREAFKDYDDPAHDISHTFRVMENASEIASREKCDLQKAIIAALLHDIKRPHEALTGVDHAESGAEYASGLLPTMGFDISFVAEVSKAIRSHRYSGGLTPTSLTGKILQDADRLDAIGAVAIARVFSYSGKTGTPLHSLQFSPRSSYSGNSRSSINHFHEKILKIRPETFWTETARKMAEDRYSFVVEFVQRFLAEWGQI | not failed |
